Test results published in patent US20230398217A1 (published 2023).
Residue numbers refer to the chain shown, from its start.

B1: HA1-Fred Hutch (TCR, V domains shown)
Valpha: KQEVTQIPAALSVPEGENLVLNCSFTDSAIYNLQWFRQDPGKGLTSLLLIQSSQREQTSGRLNASLDKSSGRSTLYIAASQPGDSATYLCAVIGLGGTYKYIFGTGTRLKVLA
Vbeta: DTGVSQDPRHKITKRGQNVTFRCDPISEHNRLYWYRQTLGQGPEFLTYFQNEAQLEKSRLLSDRFSAERPKGSFSTLEIQRTEQGDSAMYLCASSLVKGEKLFFGSGTQLSVL
B2: HA1-TSC-100 (TCR, V domains shown)
Valpha: KQEVTQIPAALSVPEGENLVLNCSFTDSAIYNLQWFRQDPGKGLTSLLLIQSSQREQTSGRLNASLDKSSGRSTLYIAASQPGDSATYLCAVRGGTSGTYKYIFGTGTRLKVLA
Vbeta: B1 Vbeta with L96R, V97T, K98A, E100D, K101T, L102Q, F103Y, S106P, Q109R, S111T
B3: HA1-1-12 (TCR, V domains shown)
Valpha: EDQVTQSPEALRLQEGESSSLNCSYTVSGLRGLFWYRQDPGKGPEFLFTLYSAGEEKEKERLKATLTKKESFLHITAPKPEDSATYLCAVHLNAGGTSYGKLTFGQGTILTVHP
Vbeta: DAGVTQSPTHLIKTRGQHVTLRCSPISGHKSVSWYQQVLGQGPQFIFQYYEKEERGRGNFPDRFSARQFPNYSSELNVNALLLGDSALYLCASSFDRGTNGYTFGSGTRLTVV
B4: HA1-9-46 (TCR, V domains shown)
Valpha: GENVEQHPSTLSVQEGDSAVIKCTYSDSASNYFPWYKQELGKRPQLIIDIRSNVGEKKDQRIAVTLNKTAKHFSLHITETQPEDSAVYFCAASIMRFGAGTRLTVKP
Vbeta: B1 Vbeta with D7N, V97S, K98V, G99V, E100D, K101E, L102Q, S106P, Q109R, S111T
B5: HA1-9-105 (TCR, V domains shown)
Valpha: GENVEQHPSTLSVQEGDSAVIKCTYSDSASNYFPWYKQELGKRPQLIIDIRSNVGEKKDQRIAVTLNKTAKHFSLHITETQPEDSAVYFCAVGQNFVFGPGTRLSVLP
Vbeta: DTGVSQDPRHKITKRGQNVTFRCDPISEHNRLYWYRQTLGQGPEFLTYFQNEAQLEKSRLLSDRFSAERPKGSFSTLEIQRTEQGDSAMYLCASSPTTINEAFFGQGTRLTVV
B6: HA1-10-104 (TCR, V domains shown)
Valpha: AQSVTQPDIHITVSEGASLELRCNYSYGATPYLFWYVQSPGQGLQLLLKYFSGDTLVQGIKGFEAEFKRSQSSFNLRKPSVHWSDAAEYFCAVANAGGTSYGKLTFGQGTILTVHP
Vbeta: NAGVTQTPKFRVLKTGQSMTLLCAQDMNHEYMYWYRQDPGMGLRLIHYSVGEGTTAKGEVPDGYNVSRLKKQNFLLGLESAAPSQTSVYFCASGRSGTKFFGPGTRLTVL
B7: HA1-10-93 (TCR, V domains shown)
Valpha: B4 Valpha with A91P, A92I, S93R, I94Q, M95F, R96Y, A99T, R102S, K106I
Vbeta: B1 Vbeta with K98V, G99V, E100D, K101T, L102Q, F103Y, S106P, Q109R, S111T
B8: HA1-2-23 (TCR, V domains shown)
Valpha: B2 Valpha with G94P, G95T
Vbeta: B5 Vbeta with S95I, P96L, T97V, T98G, I99G, N100T
B9: HA1-10-34 (TCR, V domains shown)
Valpha: GENVEQHPSTLSVQEGDSAVIKCTYSDSASNYFPWYKQELGKRPQLIIDIRSNVGEKKDQRIAVTLNKTAKHFSLHITETQPEDSAVYFCAARGPGTYKYIFGTGTRLKVLA
Vbeta: DTGVSQDPRHKITKRGQNVTFRCDPISEHNRLYWYRQTLGQGPEFLTYFQNEAQLEKSRLLSDRFSAERPKGSFSTLEIQRTEQGDSAMYLCASVAGTVYNEQFFGPGTRLTVL
B10: HA1-10-26 (TCR, V domains shown)
Valpha: GENVEQHPSTLSVQEGDSAVIKCTYSDSASNYFPWYKQELGKRPQLIIDIRSNVGEKKDQRIAVTLNKTAKHFSLHITETQPEDSAVYFCAASGLGSGAGSYQLTFGKGTKLSVIP
Vbeta: B1 Vbeta with V97L, K98A
B11: HA1-2-21 (TCR, V domains shown)
Valpha: GQQVMQIPQYQHVQEGEDFTTYCNSSTTLSNIQWYKQRPGGHPVFLIQLVKSGEVKKQKRLTFQFGEAKKNSSLHITATQTTDVGTYFCAGPSGNTPLVFGKGTRLSVIA
Vbeta: B5 Vbeta with P96L, T97L, I99T, A102Q, Q106P, V113L
B12: HA1-6-2 (TCR, V domains shown)
Valpha: AQTVTQSQPEMSVQEAETVTLSCTYDTSESNYYLFWYKQPPSRQMILVIRQEAYKQQNATENRFSVNFQKAAKSFSLKISDSQLGDTAMYFCALYSGAGSYQLTFGKGTKLSVIP
Vbeta: B9 Vbeta with V95F, A96E, G97L, T98A, V99G, Y100G, N101Y

Target: T1, HA-1 (HMHA1, also known as ARHGAP45; R139H polymorphism, genotype RS_1801284 A/G or A/A) peptide on … (human)
T1 peptide: VLHDDLLEA
Assay: killing
B1: recognises.

Target: T1, HA-1 (HMHA1, also known as ARHGAP45; …)
Assay: multimer staining
B2: recognises.
B3: recognises.
B4: recognises.
B5: recognises.
B6: recognises.
B7: recognises.
B8: recognises.
B9: recognises.
B10: recognises.
B11: recognises.
B12: recognises.

Target: T2, CCDC114 peptide on HLA-A*02:01 (human)
T2 peptide: SMIDDLLGV
Assay: activation reporter or marker
B2: no recognition.
B1: recognises.
